In patent US20210230304A1:

Target: Chicken egg white-derived lysozyme (Sigma-Aldrich) (chicken) (UniProt P00698)
Test: SPR, Biacore T200; antigen immobilised, antibody as analyte

Chicken egg white-derived lysozyme (Sigma-Aldrich) (chicken), sequence (P00698 19-147): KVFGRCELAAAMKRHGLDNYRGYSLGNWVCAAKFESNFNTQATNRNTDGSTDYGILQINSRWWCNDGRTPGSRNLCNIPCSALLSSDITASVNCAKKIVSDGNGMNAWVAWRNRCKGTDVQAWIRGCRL

mouse anti-lysozyme antibody of clone Hy-HEL5, wild-type
Kd: 0.177 nM
